Article PMC2818874

Target: Cytosolic His-tag version of human IRE1α (IRE1ΔN-HIS) (human)

Cytosolic His-tag version of human IRE1α (IRE1ΔN-HIS) (domain or fragment)
stoichiometry N: 2
